Measurements reported in article doi:10.1101/2024.12.23.630145, “Setdb1 and Atf7IP form a hetero-trimeric complex that blocks Setdb1 nuclear export” (bioRxiv, 2024).
Where a chain is given by its changes, count along the chain named. Names and notes keep the numbering of the source.

B1: 6Xhis-SUMO-Setdb1(Δα1; residues 35–114) (domain or fragment, human, UniProt Q15047 35-114, looked up)
chain: ISMEELRHFIDEELEKMDCVQQRKKQLAELETWVIQKESEVAHVDQLFDDASRAVTNCESLVKDFYSKLGLQYRDSSSED
notes: Setdb1, human, UniProt Q15047, residues 35–114 (helix α1 with NES#1 removed); source: E. coli (BL21DE3 or Rosetta2), purified (HisTrap, dialysis); not shown: His6, N-terminal, kept; SUMO, N-terminal, kept
B2: biotin-MBP-Atf7IP(574–666) (domain or fragment, human, UniProt Q6VMQ6 574-666, looked up)
chain: EEEYEAEFQVKITAKGDINQKLQKVIQWLLEEKLCALQCAVFDKTLAELKTRVEKIECNKRHKTVLTELQAKIARLTKRFEAAKEDLKKRHEH
modifications: biotin (on the Avi-tag)
notes: also called AviTag-MBP-Atf7IP; source: E. coli, co-expressed with birA with 40μM biotin, purified (MBPTrap, Superdex 200); not shown: AviTag, N-terminal, kept; MBP, N-terminal, kept
B3: 6Xhis-SUMO-Atf7IP(574–666) (domain or fragment, human, UniProt Q6VMQ6 574-666, looked up)
chain: B2 chain
notes: Printed mass 23.2 kDa; not shown: His6, N-terminal, kept; SUMO, N-terminal, kept
B4: MBP-Atf7IP (574–666) C608S C612S (domain or fragment, human, UniProt Q6VMQ6 574-666, looked up)
chain: B2 chain with C35S, C39S
notes: also called Atf7IP(C631); not shown: MBP, N-terminal, kept
B5: 6Xhis-SUMO-Setdb1(Δα1- α2; residues 50–114) (domain or fragment, human, UniProt Q15047 50-114, looked up)
chain: KMDCVQQRKKQLAELETWVIQKESEVAHVDQLFDDASRAVTNCESLVKDFYSKLGLQYRDSSSED
notes: Setdb1, human, UniProt Q15047, residues 50–114 (helices α1 and α2 removed); source: E. coli (BL21DE3 or Rosetta2), purified (HisTrap, dialysis); not shown: His6, N-terminal, kept; SUMO, N-terminal, kept

Tests used:
[1] = biological target: B2; assay: AlphaScreen or HTRF; His-sumo-Setdb1 on nickel chelate acceptor beads, biotin-MBP-Atf7IP(574–666) on streptavidin donor beads; 20nM each, or one at 20nM and the other 0–20nM; 50mM MOPS, 50mM CHAPS, 50mM NaF, 100μg/ml BSA, pH7; room temperature; conditions: both partners purified
[2] = biological target: T1, His-sumo-Setdb1(2–115) (human, UniProt Q15047 2-115); assay: as above; conditions: both partners purified
T1 construct: source: E. coli (BL21DE3 or Rosetta2), purified (HisTrap, dialysis); not shown: His6, N-terminal, kept; SUMO, N-terminal, kept

[3] = biological target: the molecule itself; assay: SEC; isolated MBP-Atf7IP(574–666), gel filtration with and without Tween 20
[4] = biological target: T2, GST-Setdb1(2–115) (human, UniProt Q15047 2-115); assay: pull-down; 0.5 μM GST fusion on glutathione Sepharose beads; 1.5 μM hCRM1 with or without 4.5 μM Ran^GTP; MBP-Atf7IP(574–666) pre-incubated at 3-fold or 15-fold excess; TB buffer (20mM HEPES 7.4, 110mM potassium acetate, 2mM magnesium acetate, 10% glycerol, 2mM DTT, 0.005% Tween20); Coomassie SDS-PAGE; conditions: both partners purified
T2 construct: also called GST-Setdb1(2–114); source: E. coli, purified (GSTTrap, Superdex 200); not shown: GST, N-terminal, kept

[5] = biological target: the molecule itself; assay: native MS; co-expressed complex purified, exchanged into 400 mM ammonium acetate pH 7.9, 1 mM DTT; 500 nM; HCD 220 V for fragments
[6] = biological target: T3, MBP-Setdb1(2–115) (human, UniProt Q15047 2-115); assay: SEC-MALS; co-expressed complex purified by MBP affinity; Superdex 200 Increase 10/300 GL; about 400 μL at ~1 mg/mL; conditions: both partners purified
T3 construct: Printed mass 56.7 kDa; also called MBP-Setdb1(2–114); source: E. coli, co-expressed with its partners; complex purified (MBPTrap, Superdex 200); not shown: MBP, N-terminal, kept

[7] = biological target: the molecule itself; assay: cross-linking; MBP-Atf7IP(574–666) C608S C612S in isolation, purified on amylose beads, non-reducing; SDS-PAGE with and without BME

In the case of B1, the “binding as percent of WT” value [1] is reported as ~80 % of WT.

B2: binds [2]; binds [3]; binds [4].

B3 was tested, and the binding result [5] was “binds” and the “stoichiometry N” value [6] was 2 Atf7IP per Setdb1.

B4: binds [7].

For B5, the “binding as percent of WT” value [1] was ~30 % of WT.
